Laboratory results taken from article PMC4974930.
Read-outs that look alike come from different tables or passages of the source. One block for each substance: values may come before it.

Key:
Test in all cases: cross-linking; 0.3 mg/ml purified F1 mutant in buffer A (20 mM HEPES pH 7.4, 100 mM KCl, 5 mM MgCl2, 5% glycerol) with trans-ABDM (azobenzene-dimaleimide), at least 2 h at room temperature, quenched with 1 mM DTT; 8% SDS-PAGE, intensity of the α/β dimer band relative to the monomer bands
[1] = target: E. coli F1 ATPase β subunit, cysteine-less, 6xHis-tagged, V409C (E. coli)
[2] = target: E. coli F1 ATPase β subunit, cysteine-less, 6xHis-tagged, V409C (E. coli); remark: listed apart in the source
[3] = target: E. coli F1 ATPase β subunit, cysteine-less, 6xHis-tagged, G412C (E. coli)
[4] = target: E. coli F1 ATPase β subunit, cysteine-less, 6xHis-tagged, S327C (E. coli)
[5] = target: E. coli F1 ATPase β subunit, cysteine-less, 6xHis-tagged, Q324C (E. coli)

crosslinking ratio [1]: 0.3 | crosslinking ratio [2]: 0.4
Substance: E. coli F1 ATPase α subunit, cysteine-less, A380C (from UniProt P0ABB0 1-513) (natural protein)

crosslinking ratio [3]: 0.3
Substance: E. coli F1 ATPase α subunit, cysteine-less, G379C (from UniProt P0ABB0 1-513) (natural protein)

crosslinking ratio [4]: 0.2
Substance: E. coli F1 ATPase α subunit, cysteine-less, N369C (from UniProt P0ABB0 1-513) (natural protein)

crosslinking ratio [5]: 0.2
Substance: E. coli F1 ATPase α subunit, cysteine-less, S338C (from UniProt P0ABB0 1-513) (natural protein)
